Results from patent publication US20170015742A1 (published 2017).
Where a chain is given by its changes, count along the chain named.

B1: 9E10.6_GS_CL-33675 (bispecific antibody, human IgG1, kappa, L234A L235A)
heavy: EVQLVQSGAEVKKPGSSVKVSCKASGYTFTNYGMYWVRQAPGQGLEWMGWIDTETGRPTYADDFKGRFTFTADKSTSTAYMELSSLRSEDTAVYYCARWSGDTTGIRGPWFAYWGQGTLVTVSSGGGGSGGGGSEVTLRESGPALVKPTQTLTLTCTFSGFSLSTYGMGVGWIRQPPGKALEWLANIWWDDDKYYNPSLKNRLTISKDTSKNQVVLTMTNMDPVDTATYYCARIESSGPKYSFDYWGQGTMVTVSSASTKGPSVFPLAPSSKSTSGGTAALGCLVKDYFPEPVTVSWNSGALTSGVHTFPAVLQSSGLYSLSSVVTVPSSSLGTQTYICNVNHKPSNTKVDKKVEPKSCDKTHTCPPCPAPEAAGGPSVFLFPPKPKDTLMISRTPEVTCVVVDVSHEDPEVKFNWYVDGVEVHNAKTKPREEQYNSTYRVVSVLTVLHQDWLNGKEYKCKVSNKALPAPIEKTISKAKGQPREPQVYTLPPSREEMTKNQVSLTCLVKGFYPSDIAVEWESNGQPENNYKTTPPVLDSDGSFFLYSKLTVDKSRWQQGNVFSCSVMHEALHNAYTQKSLSLSPGK
light: DIRMTQSPSSLSASVGDRVTITCLASEDIYSDLAWYQQKPGKSPKLLIYNANGLQNGVPSRFSGSGSGTDYTLTISSLQPEDVATYFCQQYNYFPGTFGQGTKLEIKGGSGGGGSGGEIVLTQSPGTLSLSPGERATLSCRASSGSIWYSFVSWYQQKPGQAPRLLIYADDQRASGIPDRFSGSGSGTDFTLTISRLEPEDFAVYYCQSYGINIDVVFGGGTKVEIKRTVAAPSVFIFPPSDEQLKSGTASVVCLLNNFYPREAKVQWKVDNALQSGNSQESVTEQDSKDSTYSLSSTLTLSKADYEKHKVYACEVTHQGLSSPVTKSFNRGEC
B2: 9E10.1_GS_9E8.4 (bispecific antibody, human IgG1, kappa, L234A L235A)
heavy: EIQLVQSGSELKKPGASVKVSCKASGYTFTNYGMYWVKQAPGQGLEYMGWIDTETGRPTYADDFKGRFVFSLDTSVSTAYLQISSLKAEDTAVYFCARWSGDTTGIRGPWFAYWGQGTLVTVSSGGGGSGGGGSEVTLRESGPALVKPTQTLTLTCTFSGFSLSTYGMGVGWIRQPPGKALEWLANIWWDDDKYYNPSLKNRLTISKDTSKNQVVLTMTNMDPVDTATYYCARIESIGTTYSFDYWGQGTMVTVSSASTKGPSVFPLAPSSKSTSGGTAALGCLVKDYFPEPVTVSWNSGALTSGVHTFPAVLQSSGLYSLSSVVTVPSSSLGTQTYICNVNHKPSNTKVDKKVEPKSCDKTHTCPPCPAPEAAGGPSVFLFPPKPKDTLMISRTPEVTCVVVDVSHEDPEVKFNWYVDGVEVHNAKTKPREEQYNSTYRVVSVLTVLHQDWLNGKEYKCKVSNKALPAPIEKTISKAKGQPREPQVYTLPPSREEMTKNQVSLTCLVKGFYPSDIAVEWESNGQPENNYKTTPPVLDSDGSFFLYSKLTVDKSRWQQGNVFSCSVMHEALHNAYTQKSLSLSPGK
light: DIRMTQSPSSLSASVGDRVTIECLASEDIYSDLAWYQQKPGKSPKLLIYNANGLQNGVPSRFSGSGSGTDYSLTISSLQPEDVATYFCQQYNYFPGTFGQGTKLEIKGGSGGGGSGGEFVLTQSPGTLSLSPGERATLSCERSSGDIGDSYVSWYQQKPGQAPRLVIYADDQRPSGIPDRFSGSGSGTDFTLTISRLEPEDFAVYYCQSYDINIDIVFGGGTKVEIKRTVAAPSVFIFPPSDEQLKSGTASVVCLLNNFYPREAKVQWKVDNALQSGNSQESVTEQDSKDSTYSLSSTLTLSKADYEKHKVYACEVTHQGLSSPVTKSFNRGEC
B3: 9E10.6_GS_9E8.4 (bispecific antibody, human IgG1, kappa, L234A L235A)
heavy: B1 heavy with S237I, P239T, K240T
light: B2 light with E22T, S72T
B4: CL-33675_GS_4G8.5 (bispecific antibody, human IgG1, kappa, L234A L235A)
heavy: EVTLRESGPALVKPTQTLTLTCTFSGFSLSTYGMGVGWIRQPPGKALEWLANIWWDDDKYYNPSLKNRLTISKDTSKNQVVLTMTNMDPVDTATYYCARIESSGPKYSFDYWGQGTMVTVSSGGGGSGGGGSEIQLVQSGSELKKPGASVKVSCKASGYTFTNYGMYWVRQAPGQGLEYMGWINTETGKPTYADDFKGRFVFSLDTSVSTAYLQISSLKAEDTAVYFCARTNYYYRSYIFYFDYWGQGTMVTVSSASTKGPSVFPLAPSSKSTSGGTAALGCLVKDYFPEPVTVSWNSGALTSGVHTFPAVLQSSGLYSLSSVVTVPSSSLGTQTYICNVNHKPSNTKVDKKVEPKSCDKTHTCPPCPAPEAAGGPSVFLFPPKPKDTLMISRTPEVTCVVVDVSHEDPEVKFNWYVDGVEVHNAKTKPREEQYNSTYRVVSVLTVLHQDWLNGKEYKCKVSNKALPAPIEKTISKAKGQPREPQVYTLPPSREEMTKNQVSLTCLVKGFYPSDIAVEWESNGQPENNYKTTPPVLDSDGSFFLYSKLTVDKSRWQQGNVFSCSVMHEALHNAYTQKSLSLSPGK
light: EIVLTQSPGTLSLSPGERATLSCRASSGSIWYSFVSWYQQKPGQAPRLLIYADDQRASGIPDRFSGSGSGTDFTLTISRLEPEDFAVYYCQSYGINIDVVFGGGTKVEIKGGSGGGGSGGATQLTQSPSLSASVGDRVTITCRASESVSTHMHWYQQKPGKQPKLLIYGASNLESGVPSRFSGSGSGTDFTLTISSLQPEDFATYFCQQSWNDPFTFGQGTKLEIKRTVAAPSVFIFPPSDEQLKSGTASVVCLLNNFYPREAKVQWKVDNALQSGNSQESVTEQDSKDSTYSLSSTLTLSKADYEKHKVYACEVTHQGLSSPVTKSFNRGEC
B5: 1B10.1_GS_9E8.4 (bispecific antibody, human IgG1, kappa, L234A L235A)
heavy: EVQLVESGGGLVQPGGSLRLSCAASGFSFSKYDMAWFRQAPGKGLEWVASITTSGVGTYYRDSVKGRFTVSRDNAKSTLYLQMNSLRAEDTAVYYCARGYGAMDAWGQGTTVTVSSGGGGSGGGGSEVTLRESGPALVKPTQTLTLTCTFSGFSLSTYGMGVGWIRQPPGKALEWLANIWWDDDKYYNPSLKNRLTISKDTSKNQVVLTMTNMDPVDTATYYCARIESIGTTYSFDYWGQGTMVTVSSASTKGPSVFPLAPSSKSTSGGTAALGCLVKDYFPEPVTVSWNSGALTSGVHTFPAVLQSSGLYSLSSVVTVPSSSLGTQTYICNVNHKPSNTKVDKKVEPKSCDKTHTCPPCPAPEAAGGPSVFLFPPKPKDTLMISRTPEVTCVVVDVSHEDPEVKFNWYVDGVEVHNAKTKPREEQYNSTYRVVSVLTVLHQDWLNGKEYKCKVSNKALPAPIEKTISKAKGQPREPQVYTLPPSREEMTKNQVSLTCLVKGFYPSDIAVEWESNGQPENNYKTTPPVLDSDGSFFLYSKLTVDKSRWQQGNVFSCSVMHEALHNAYTQKSLSLSPGK
light: DIQMTQSPSSLSASVGDRVTITCKASQDIDDYLSWYQQKPGKSPKLVIYAATRLADGVPSRFSGSGSGTDYTLTISSLQPEDFATYYCLQSSSTPWTFGGGTKVEIKGGSGGGGSGGEFVLTQSPGTLSLSPGERATLSCERSSGDIGDSYVSWYQQKPGQAPRLVIYADDQRPSGIPDRFSGSGSGTDFTLTISRLEPEDFAVYYCQSYDINIDIVFGGGTKVEIKRTVAAPSVFIFPPSDEQLKSGTASVVCLLNNFYPREAKVQWKVDNALQSGNSQESVTEQDSKDSTYSLSSTLTLSKADYEKHKVYACEVTHQGLSSPVTKSFNRGEC
B6: CL-33675_GS_1B10.1 (bispecific antibody, human IgG1, kappa, L234A L235A)
heavy: EVTLRESGPALVKPTQTLTLTCTFSGFSLSTYGMGVGWIRQPPGKALEWLANIWWDDDKYYNPSLKNRLTISKDTSKNQVVLTMTNMDPVDTATYYCARIESSGPKYSFDYWGQGTMVTVSSGGGGSGGGGSEVQLVESGGGLVQPGGSLRLSCAASGFSFSKYDMAWFRQAPGKGLEWVASITTSGVGTYYRDSVKGRFTVSRDNAKSTLYLQMNSLRAEDTAVYYCARGYGAMDAWGQGTTVTVSSASTKGPSVFPLAPSSKSTSGGTAALGCLVKDYFPEPVTVSWNSGALTSGVHTFPAVLQSSGLYSLSSVVTVPSSSLGTQTYICNVNHKPSNTKVDKKVEPKSCDKTHTCPPCPAPEAAGGPSVFLFPPKPKDTLMISRTPEVTCVVVDVSHEDPEVKFNWYVDGVEVHNAKTKPREEQYNSTYRVVSVLTVLHQDWLNGKEYKCKVSNKALPAPIEKTISKAKGQPREPQVYTLPPSREEMTKNQVSLTCLVKGFYPSDIAVEWESNGQPENNYKTTPPVLDSDGSFFLYSKLTVDKSRWQQGNVFSCSVMHEALHNAYTQKSLSLSPGK
light: EIVLTQSPGTLSLSPGERATLSCRASSGSIWYSFVSWYQQKPGQAPRLLIYADDQRASGIPDRFSGSGSGTDFTLTISRLEPEDFAVYYCQSYGINIDVVFGGGTKVEIKGGSGGGGSGGDIQMTQSPSSLSASVGDRVTITCKASQDIDDYLSWYQQKPGKSPKLVIYAATRLADGVPSRFSGSGSGTDYTLTISSLQPEDFATYYCLQSSSTPWTFGGGTKVEIKRTVAAPSVFIFPPSDEQLKSGTASVVCLLNNFYPREAKVQWKVDNALQSGNSQESVTEQDSKDSTYSLSSTLTLSKADYEKHKVYACEVTHQGLSSPVTKSFNRGEC
B7: 1E3.4_GS_3E2.1 (bispecific antibody, human IgG1, kappa, L234A L235A)
heavy: EIQLVQSGSELKKPGASVKVSCKASGYPFTNSGMYWVKQAPGQGLEYMGWINTEAGKPTYADDFKGRFVFSLDTSVSTAYLQISSLKAEDTAVYFCARWGYISDNSYGWFDYWGQGTLVTVSSGGGGSGGGGSEVQLVQSGAEVKKPGSSVKVSCKASGYTFTESYMYWVKQAPGQGLELIGRIDPEDGSTDYVEKFKNKATLTADKSTSTAYMELSSLRSEDTAVYFCARFGARSYFYPMDAWGQGTTVTVSSASTKGPSVFPLAPSSKSTSGGTAALGCLVKDYFPEPVTVSWNSGALTSGVHTFPAVLQSSGLYSLSSVVTVPSSSLGTQTYICNVNHKPSNTKVDKKVEPKSCDKTHTCPPCPAPEAAGGPSVFLFPPKPKDTLMISRTPEVTCVVVDVSHEDPEVKFNWYVDGVEVHNAKTKPREEQYNSTYRVVSVLTVLHQDWLNGKEYKCKVSNKALPAPIEKTISKAKGQPREPQVYTLPPSREEMTKNQVSLTCLVKGFYPSDIAVEWESNGQPENNYKTTPPVLDSDGSFFLYSKLTVDKSRWQQGNVFSCSVMHEALHNAYTQKSLSLSPGK
light: ATQLTQSPSSLSASVGDRVTISCRASEGVYSYMHWYQQKPGKQPKLLIYKASNLASGVPSRFSGSGSGTDFTLTISSLQPEDFATYFCHQNWNDPLTFGQGTKLEIKGGSGGGGSGGETVLTQSPATLSLSPGERATLSCRASESVSTLMHWYQQKPGQQPRLLIYGASNLESGVPARFSGSGSGTDFTLTISSLEPEDFAVYFCQQSWNDPWTFGGGTKVEIKRTVAAPSVFIFPPSDEQLKSGTASVVCLLNNFYPREAKVQWKVDNALQSGNSQESVTEQDSKDSTYSLSSTLTLSKADYEKHKVYACEVTHQGLSSPVTKSFNRGEC

Target: recombinant human VEGF165 (human, UniProt P15692 207-395)
Sequence (P15692 other isoform, or with tags, fused parts or gaps limits assumed): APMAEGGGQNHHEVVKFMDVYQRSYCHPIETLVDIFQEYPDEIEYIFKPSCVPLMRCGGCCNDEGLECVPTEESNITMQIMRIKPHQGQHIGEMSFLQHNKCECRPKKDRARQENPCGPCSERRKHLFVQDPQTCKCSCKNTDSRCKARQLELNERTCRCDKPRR
Assay: cell-based or functional assay

Row | Potency IC50 (nM) HMVEC-d hVEGF165 [nM] | Binder
1 | 0.05 | B1
2 | 0.059 | B2
3 | 0.049 | B3
4 | 0.219 | B4
5 | 0.127 | B5
6 | 0.265 | B6
7 | 0.043 | B7

Target: recombinant human PDGF-BB (human, UniProt P01127 82-190)
Sequence (P01127 82-190 limits assumed): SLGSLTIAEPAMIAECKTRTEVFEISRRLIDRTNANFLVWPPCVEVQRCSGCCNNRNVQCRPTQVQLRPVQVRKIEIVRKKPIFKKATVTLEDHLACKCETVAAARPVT
Assay: cell-based or functional assay

Row | Potency IC50 (nM) NIH-3T3 hPDGF-BB [nM] | Binder
8 | 0.037 | B1
9 | 1.91 | B2
10 | 1.14 | B3
11 | 0.035 | B4
12 | 0.678 | B5
13 | 0.11 | B6
14 | 6.25 | B7
